Test results published in patent US6379928.

What was measured:
Experiment in all cases: cell-based or functional assay
[1] = target: chymosin polypeptide secreted by fungi transformed with pGRG1 (A. niger glucoamylase signal peptide fused to bovine prochymosin) (bovine) (UniProt P00794)
[2] = target: chymosin polypeptide secreted by fungi transformed with pGRG2 (A. niger glucoamylase signal peptide and propeptide fused to bovine prochymosin) (bovine) (UniProt P00794)
[3] = target: chymosin polypeptide secreted by fungi transformed with pGRG3 (bovine preprochymosin under the glucoamylase promoter) (bovine) (UniProt P00794)

Chymosin Activity (µg/ml) of pGRG1 broth after preincubation with pepstatin (0.2 without pepstatin) [1]: 0.05 µg/ml
Chymosin Activity (µg/ml) of pGRG2 broth after preincubation with pepstatin (0.1 without pepstatin) [2]: 0 µg/ml
Chymosin Activity (µg/ml) of pGRG3 broth after preincubation with pepstatin (3 without pepstatin) [3]: 0.6 µg/ml
Substance: pepstatin (peptide)
